Assay results from patent US6319897A, “Peptides which inhibit complement activation” (priority 1999, dated 2001).

Key:
[1] = test system: classical pathway-mediated hemolytic activity (thioester of C3); settings: read-out: 50% inhibitory concentration, classical pathway-mediated hemolytic activity; cited from earlier work
[2] = test system: alternative pathway-mediated hemolytic activity (thioester of C3); settings: read-out: 50% inhibitory concentration, alternative pathway-mediated hemolytic activity; cited from earlier work
complement = settings: in vivo; cited from earlier work
C3 = molecular target: T1, C3 (Homo sapiens, UniProt P01024); test: Phage clone binding ELISA, immobilized C3; settings: 2 μg coated, 1 hour 22° C.
T1 construct: purified from normal human plasma in accordance with well known procedures; from tissue; host or cells: normal human plasma (C3, factor B)
T1 sequence (P01024 23-667 limits assumed): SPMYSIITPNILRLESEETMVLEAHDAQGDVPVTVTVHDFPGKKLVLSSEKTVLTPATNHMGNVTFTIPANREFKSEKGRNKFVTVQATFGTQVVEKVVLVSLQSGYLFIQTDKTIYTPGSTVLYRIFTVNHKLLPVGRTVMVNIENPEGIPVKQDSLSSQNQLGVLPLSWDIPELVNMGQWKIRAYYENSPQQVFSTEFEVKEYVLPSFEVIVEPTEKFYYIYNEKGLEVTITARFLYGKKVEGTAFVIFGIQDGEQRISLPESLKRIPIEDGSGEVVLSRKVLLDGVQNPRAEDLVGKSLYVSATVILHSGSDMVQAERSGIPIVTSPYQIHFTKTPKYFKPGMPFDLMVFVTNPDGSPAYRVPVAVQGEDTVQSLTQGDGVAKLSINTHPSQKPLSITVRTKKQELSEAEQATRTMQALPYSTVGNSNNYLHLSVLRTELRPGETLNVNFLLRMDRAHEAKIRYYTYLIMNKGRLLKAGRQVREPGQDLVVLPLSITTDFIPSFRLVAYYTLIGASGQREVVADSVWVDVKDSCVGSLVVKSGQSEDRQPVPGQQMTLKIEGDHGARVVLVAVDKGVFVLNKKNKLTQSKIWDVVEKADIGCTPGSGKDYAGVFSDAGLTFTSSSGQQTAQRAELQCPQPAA
T1 sequence (P01024 672-1663 limits assumed): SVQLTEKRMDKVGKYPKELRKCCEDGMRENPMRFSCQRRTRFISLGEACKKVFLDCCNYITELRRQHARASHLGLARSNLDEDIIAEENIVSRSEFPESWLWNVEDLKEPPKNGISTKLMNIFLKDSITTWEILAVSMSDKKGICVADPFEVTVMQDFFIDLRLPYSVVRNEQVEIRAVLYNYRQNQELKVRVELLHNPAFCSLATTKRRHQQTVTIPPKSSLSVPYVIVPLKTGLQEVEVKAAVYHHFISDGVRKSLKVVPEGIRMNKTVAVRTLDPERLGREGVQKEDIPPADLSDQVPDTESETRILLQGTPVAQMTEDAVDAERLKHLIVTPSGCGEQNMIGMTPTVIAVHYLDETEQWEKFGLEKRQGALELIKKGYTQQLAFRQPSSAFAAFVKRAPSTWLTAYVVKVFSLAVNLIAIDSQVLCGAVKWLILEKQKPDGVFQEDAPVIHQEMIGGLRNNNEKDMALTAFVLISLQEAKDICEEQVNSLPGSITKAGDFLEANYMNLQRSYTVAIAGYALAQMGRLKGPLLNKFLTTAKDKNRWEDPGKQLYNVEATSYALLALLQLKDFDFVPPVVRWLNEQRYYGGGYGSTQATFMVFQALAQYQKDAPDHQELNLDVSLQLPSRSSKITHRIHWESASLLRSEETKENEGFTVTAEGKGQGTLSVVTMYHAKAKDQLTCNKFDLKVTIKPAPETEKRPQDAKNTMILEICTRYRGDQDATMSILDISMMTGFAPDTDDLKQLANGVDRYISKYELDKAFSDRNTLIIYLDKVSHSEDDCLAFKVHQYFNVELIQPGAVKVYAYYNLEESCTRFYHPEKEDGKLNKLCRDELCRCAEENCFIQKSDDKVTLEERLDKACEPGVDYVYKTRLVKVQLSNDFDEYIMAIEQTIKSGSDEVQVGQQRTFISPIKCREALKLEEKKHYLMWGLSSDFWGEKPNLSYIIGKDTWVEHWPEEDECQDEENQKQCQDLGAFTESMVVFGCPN
Description: (§1) Microtiter wells were coated with 2 μg of C3, C3b, C3c or C3d, saturated with blocking buffer, washed with PBS (pH 7.4) containing 0.05% Tween 20, and incubated 1 hour at 22° C. with a positive (clone 9) or negative (clone 1) clone. Binding was inhibited by adding 250 μg/ml of aggregated C3 in PBS, pH 7.4. Bound M13 phage particles were detected by peroxidase-coupled anti-M13 antibody and ABTS peroxidase substrate. Diagonally lined bars represent peroxidase-coupled anti-M13 antibody bound non-specifically to the plate; cross-hatched bars represent clone 9 bound to C3 or C3 fragments; horizontally lined bars represent clone 9 bound to C3 or C3 fragments in the presence of 250 μg/ml of aggregated C3; and vertically lined bars represent clone 1 bound to C3 or C3 fragments.
(§2) The C3-binding phage was isolated by screening the phage library described in Example 3. Microtiter well plates (Nunc Inc., Naperville, Ill.) were coated overnight with 20 μg of C3b in PBS at 4° C. and blocked with PBS containing 1% BSA for 30 minutes at 22° C. […] The amplified phage mixture obtained after the third round of amplification was plated, and positive phage were identified by confirming their binding to C3b in an ELISA, in which bound phage were detected by peroxidase-labeled anti-M13 antibody (Pharmacia). […]

C3b = molecular target: T2, C3b (Homo sapiens, UniProt P01024); test: Phage clone binding ELISA, immobilized C3b; settings: 2 μg coated, 1 hour 22° C.
T2 construct: from tissue; host or cells: normal human plasma; C3 cleaved with trypsin, Mono Q purified
T2 sequence (P01024 23-667 limits assumed): as the sequence (P01024 23-667 limits assumed) above
T2 sequence (P01024 749-1663 limits assumed): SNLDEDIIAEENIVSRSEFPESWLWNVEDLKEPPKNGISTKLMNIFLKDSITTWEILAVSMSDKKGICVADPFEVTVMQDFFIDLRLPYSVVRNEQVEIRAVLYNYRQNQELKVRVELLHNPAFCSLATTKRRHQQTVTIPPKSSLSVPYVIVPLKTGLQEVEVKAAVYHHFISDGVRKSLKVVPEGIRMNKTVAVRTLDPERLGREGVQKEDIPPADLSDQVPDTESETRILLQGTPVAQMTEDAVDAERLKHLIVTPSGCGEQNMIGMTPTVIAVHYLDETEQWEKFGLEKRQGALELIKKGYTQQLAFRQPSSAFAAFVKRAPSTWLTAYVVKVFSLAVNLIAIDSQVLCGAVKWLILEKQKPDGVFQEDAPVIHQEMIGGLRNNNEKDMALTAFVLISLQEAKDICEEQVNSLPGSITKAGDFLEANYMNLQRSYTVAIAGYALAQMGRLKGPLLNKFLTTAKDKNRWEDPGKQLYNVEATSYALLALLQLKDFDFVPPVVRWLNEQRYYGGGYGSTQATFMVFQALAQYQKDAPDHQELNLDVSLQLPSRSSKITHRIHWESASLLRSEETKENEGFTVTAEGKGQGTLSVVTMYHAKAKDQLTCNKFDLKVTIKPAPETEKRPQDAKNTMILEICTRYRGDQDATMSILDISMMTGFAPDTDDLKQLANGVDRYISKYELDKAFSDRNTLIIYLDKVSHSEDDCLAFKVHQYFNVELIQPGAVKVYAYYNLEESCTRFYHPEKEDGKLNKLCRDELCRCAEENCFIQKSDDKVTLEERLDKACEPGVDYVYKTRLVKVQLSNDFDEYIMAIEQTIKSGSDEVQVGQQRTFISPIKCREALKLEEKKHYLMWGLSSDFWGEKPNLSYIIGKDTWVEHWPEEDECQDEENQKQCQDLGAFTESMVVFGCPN
Description: as §1, §2

C3c = molecular target: T3, C3c (Homo sapiens, UniProt P01024); test: Phage clone binding ELISA, immobilized C3c; settings: 2 μg coated, 1 hour 22° C.
T3 construct: C3c, 135,300 Mr fragment of C3 generated using elastase; from tissue; host or cells: normal human plasma; C3 treated with elastase, Mono Q purified
T3 sequence (P01024 23-667 limits assumed): as the sequence (P01024 23-667 limits assumed) above
T3 sequence (P01024 749-954 limits assumed): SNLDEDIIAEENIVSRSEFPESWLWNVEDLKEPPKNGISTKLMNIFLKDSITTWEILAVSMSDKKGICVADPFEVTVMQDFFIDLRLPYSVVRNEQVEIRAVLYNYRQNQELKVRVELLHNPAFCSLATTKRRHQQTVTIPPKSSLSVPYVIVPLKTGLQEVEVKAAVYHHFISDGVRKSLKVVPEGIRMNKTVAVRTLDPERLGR
T3 sequence (P01024 1321-1663 limits assumed): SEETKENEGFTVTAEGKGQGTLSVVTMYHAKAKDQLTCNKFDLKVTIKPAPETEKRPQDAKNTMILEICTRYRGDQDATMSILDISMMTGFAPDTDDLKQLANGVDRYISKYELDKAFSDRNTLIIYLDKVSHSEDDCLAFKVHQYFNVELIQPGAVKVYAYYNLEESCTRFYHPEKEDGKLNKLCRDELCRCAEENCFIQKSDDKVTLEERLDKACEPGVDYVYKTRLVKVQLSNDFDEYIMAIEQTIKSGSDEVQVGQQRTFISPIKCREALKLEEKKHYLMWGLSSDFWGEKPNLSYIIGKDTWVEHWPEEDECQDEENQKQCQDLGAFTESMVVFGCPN
Description: as §1, §2

C3d = molecular target: T4, C3d (Homo sapiens, UniProt P01024); test: Phage clone binding ELISA, immobilized C3d; settings: 2 μg coated, 1 hour 22° C.
T4 construct: C3d, 35,000 Mr fragment of C3 generated using elastase; from tissue; host or cells: normal human plasma; C3 treated with elastase, Mono Q purified
T4 sequence (P01024 1002-1303 limits assumed): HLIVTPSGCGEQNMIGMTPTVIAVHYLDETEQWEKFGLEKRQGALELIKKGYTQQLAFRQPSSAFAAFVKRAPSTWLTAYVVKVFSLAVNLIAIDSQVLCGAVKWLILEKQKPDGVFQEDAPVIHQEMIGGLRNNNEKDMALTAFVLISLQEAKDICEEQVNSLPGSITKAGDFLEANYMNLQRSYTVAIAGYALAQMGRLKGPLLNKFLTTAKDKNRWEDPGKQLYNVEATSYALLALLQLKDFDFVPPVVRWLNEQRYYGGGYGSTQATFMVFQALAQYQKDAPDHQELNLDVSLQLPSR
Description: as §1, §2

O=C(NO)c1ccccc1O [salicyl hydroxamate]
IC50 [1]: 280 µM | IC50 [2]: 33 µM

sCR1: soluble form of CR1 (complement receptor 1)
complement suppression in complement-dependent disease models (complement): suppresses complement

SSICVVQDWGHHRCTAGHMANLTSHASAIR [Clone 9]
binding of phage clone to C3 (C3): bound | binding of phage clone to C3b (C3b): bound | binding of phage clone to C3c (C3c): bound | binding of phage clone to C3d (C3d): not to C3d
